# Data reported in publication PMC12216891 (Scientific Reports, 2025).
# B1: Thermochromatium tepidum form-IAq RuBisCO large subunit (RbcL) (natural protein, UniProt A0A6I6DX30 1-472, looked up)
# chain: MAKTYSAGVKEYRETYWMPNYTPKDTDILACFKITPQPGVPREEAAAAVAAESSTGTWTTVWTDLLTDLDYYKGRAYAIEDVPGDDTCFYAFIAYPIDLFEEGSVVNVFTSLVGNVFGFKAVRALRLEDVRFPIAYVMTCNGPPHGIQVERDILNKYGRPLLGCTIKPKLGLSAKNYGRAVYECLRGGLDFTKDDENVNSQPFMRWRQRFDFVMEAIDKAERETGERKGHYLNVTAPTPEEMYKRAEYAKEIGAPIIMHDYITGGFCANTGLAQWCRNNGVLLHIHRAMHAVLDRNPHHGIHFRVLTKILRLSGGDHLHTGTVVGKLEGDRQATLGWIDLLRESYVKEDRSRGIFFDQDWGAMPGAFAVASGGIHVWHMPALVTIFGDDSVLQFGGGTLGHPWGNAAGACANRVALEACIEARNQGIPIEKEGKEVLTKAAAHSPELKIAMETWKEIKFEFDSVDKLDVAHK
# Molecular target: the molecule itself
# Test: cryo-EM structure
protein,measurement,value
B1,stoichiometry N,8
